Laboratory results from patent US9212226B2, “Amino acid sequences directed against CXCR4 and other GPCRs and compounds comprising the same” (Ablynx N.V., priority 2008, dated 2015).
Entries after “also recorded” stand apart in the source; their conditions may differ.

B1: 238D2-20GS-238D4: heterobivalent Nanobody, 238D2 linked to 238D4 by a 20 amino acid GGGGS linker (protein)
chain: EVQLVESGGGLVQTGGSLRLSCAASGFTFSSYAMSWVRQAPGKGLEWVSGIKSSGDSTRYAGSVKGRFTISRDNAKNMLYLQMYSLKPEDTAVYYCAKSRVSRTGLYTYDNRGQGTQVTVSSGGGGSGGGGSGGGGSGGGGSEVQLMESGGGLVQAGGSLRLSCAASGRTFNNYAMGWFRRAPGKEREFVAAITRSGVRSGVSAIYGDSVKDRFTISRDNAKNTLYLQMNSLKPEDTAVYTCAASAIGSGALRRFEYDYSGQGTQVTVSS
modifications: Nanobody, Nanobody constructs or fragments thereof
notes: heterobivalent Nanobody, 238D2 linked to 238D4 by a 20 amino acid GGGGS linker
B2: 238D2-15GS-238D4: heterobivalent Nanobody, 238D2 linked to 238D4 by a 15 amino acid GGGGS linker (protein)
chain: EVQLVESGGGLVQTGGSLRLSCAASGFTFSSYAMSWVRQAPGKGLEWVSGIKSSGDSTRYAGSVKGRFTISRDNAKNMLYLQMYSLKPEDTAVYYCAKSRVSRTGLYTYDNRGQGTQVTVSSGGGGSGGGGSGGGGSEVQLMESGGGLVQAGGSLRLSCAASGRTFNNYAMGWFRRAPGKEREFVAAITRSGVRSGVSAIYGDSVKDRFTISRDNAKNTLYLQMNSLKPEDTAVYTCAASAIGSGALRRFEYDYSGQGTQVTVSS
modifications: Nanobody, Nanobody constructs or fragments thereof
notes: heterobivalent Nanobody, 238D2 linked to 238D4 by a 15 amino acid GGGGS linker

How the values were obtained:
CXCR4 (N119A) = CXCR4 (N119A) (Homo sapiens, UniProt P61073, N119A); assay: Basal inositol phosphate accumulation in HEK293T cells expressing CXCR4 (N119A); assay type: cell-based
Protocol: (§1) HEK293T cells were maintained at 37° C. in a humidified 5% CO2, 95% air atmosphere in Dulbecco's modified Eagle's medium (DMEM) containing 2 mM L-glutamine, 50 IU/ml penicillin, 50 μg/ml streptomycin, and 10% (v/v) fetal calf serum. Jurkat cells were cultured in a humidified 5% CO2, 95% air atmosphere in a 1:1 mixture of Dulbecco's modified Eagle's medium (DMEM) and Ham's F12 medium containing 2 mM L-glutamine, 50 IU/ml penicillin, 50 μg/ml streptomycin, and 10% (v/v) fetal calf serum. […] [^125 I]-Labelling— Radiolabeling of Nanobodies with ^125I was performed using the Iodo-gen method (Pierce, Rockford, Ill.) according to the manufacturer's protocol. ^125I-labeled Nanobodies was separated from free iodine (>99%) using a Sephadex G-25 gel filtration column (Amersham Biosciences, Piscataway, N.J.). […] Competition Binding Assays— Membranes from HEK293T cells transiently expressing CXCR3 or CXCR4 were prepared 48 h after transfection as follows. Cells were washed and scraped from the cell culture dishes with ice-cold PBS containing 1 mm EDTA. The scraped cells were pelleted at 1500×g for 10 min at 4° C. The pellet was washed and then resuspended in ice-cold membrane buffer (15 mM Tris, pH 7.5, 1 mM EGTA, 0.3 mM EDTA, and 2 mM MgCl2). The cell suspension was homogenized by 10 strokes at 1200 rpm using a Teflon-glass homogenizer and rotor and further subjected to three freeze-thaw cycles using liquid nitrogen. Membranes were separated by centrifugation at 40,000 g for 25 min at 4° C. The membrane pellet was washed and resuspended in ice-cold Tris-sucrose buffer (20 mM Tris, pH 7.4, and 250 mM sucrose) and frozen in liquid nitrogen. The total protein was determined using a Bradford assay (Bio-Rad). Periplasmas (1:10) or ligands were pre-incubated with membranes in binding buffer (50 mM HEPES (pH 7.4), 1 mM CaCl2, 5 mM MgCl2, 100 mM NaCl, 0.5% bovine serum albumin) supplemented with 0.5% BSA for 1 h at 22° C. before the addition of [^125I]-CXCL12 (40 pM) or [^125I]-238D2 (3 nM) or [^125I]-238D4 (3 nM) for additional 2 h at 22° C. […] Membranes were then harvested over polyethylenimine (0.5%)-treated Whatman GF/C filter plates and washed three times with ice cold binding buffer containing 500 mM NaCl. Plates were counted by liquid scintillation. Inositol Phosphate Accumulation Assay— 24 hours post transfection with pcDNA3.1-CXCR4 and pcDNA1-HA-mG {alpha} qi5 (see Verzijl et al, 2008 supra), 250.000 cells were seeded into 24-wells plates and labelled overnight using inositol-free minimal essential medium supplemented with 1 μCi myo-[2-^3H]-inositol. The next day, the cells were washed once to remove not incorporated myo-[2-^3H]-inositol. […] In agonist experiments, the cells were directly stimulated with test compounds and LiCl (10 mM) in assay buffer for 2 h at 37° C. The stimulation was stopped by aspirating the stimulation medium and adding ice-cold 10 mM formic acid. The accumulated inositol phosphates were isolated by anion exchange chromatography and counted by liquid scintillation. CRE Reporter Gene Assay— HEK239T cells were transfected with pCRE/β-galactosidase (Chen W, Shields T S, Stork P J S, Cone R D (1995) Anal Biochem 226:349-354) and plasmids (pcDEF3 or pcDNA3.1) encoding the indicated receptors. 40,000 transfected cells per well were seeded into 96 well plates and grown in DMEM supplemented with 10% fetal calf serum. The medium was replaced 32 h after transfection by serum-free DMEM supplemented with 0.5% bovine serum albumin and ligands as indicated. […]

CXCR4 [1] = biological target: T1, CXCR4 (Homo sapiens, UniProt P61073); assay: [125I]-CXCL12 competition binding on membranes from HEK293T cells transiently expressing CXCR4; settings: for Rel. potency, relative to monovalent 238D2 / Rel. potency, relative to monovalent 238D4: [125I]-CXCL12 displacement; for Rel. potency, relative to monovalent 238D2: potency relative to those of monovalent 238D2; for Rel. potency, relative to monovalent 238D4: potency relative to those of monovalent 238D4
Protocol: (§2) HEK293T cells were maintained at 37° C. in a humidified 5% CO2, 95% air atmosphere in Dulbecco's modified Eagle's medium (DMEM) containing 2 mM L-glutamine, 50 IU/ml penicillin, 50 μg/ml streptomycin, and 10% (v/v) fetal calf serum. Jurkat cells were cultured in a humidified 5% CO2, 95% air atmosphere in a 1:1 mixture of Dulbecco's modified Eagle's medium (DMEM) and Ham's F12 medium containing 2 mM L-glutamine, 50 IU/ml penicillin, 50 μg/ml streptomycin, and 10% (v/v) fetal calf serum. […] [^125 I]-Labelling— Radiolabeling of Nanobodies with ^125I was performed using the Iodo-gen method (Pierce, Rockford, Ill.) according to the manufacturer's protocol. ^125I-labeled Nanobodies was separated from free iodine (>99%) using a Sephadex G-25 gel filtration column (Amersham Biosciences, Piscataway, N.J.). […] Competition Binding Assays— Membranes from HEK293T cells transiently expressing CXCR3 or CXCR4 were prepared 48 h after transfection as follows. Cells were washed and scraped from the cell culture dishes with ice-cold PBS containing 1 mm EDTA. The scraped cells were pelleted at 1500×g for 10 min at 4° C. The pellet was washed and then resuspended in ice-cold membrane buffer (15 mM Tris, pH 7.5, 1 mM EGTA, 0.3 mM EDTA, and 2 mM MgCl2). The cell suspension was homogenized by 10 strokes at 1200 rpm using a Teflon-glass homogenizer and rotor and further subjected to three freeze-thaw cycles using liquid nitrogen. Membranes were separated by centrifugation at 40,000 g for 25 min at 4° C. The membrane pellet was washed and resuspended in ice-cold Tris-sucrose buffer (20 mM Tris, pH 7.4, and 250 mM sucrose) and frozen in liquid nitrogen. The total protein was determined using a Bradford assay (Bio-Rad). […] Membranes were then harvested over polyethylenimine (0.5%)-treated Whatman GF/C filter plates and washed three times with ice cold binding buffer containing 500 mM NaCl. Plates were counted by liquid scintillation. Inositol Phosphate Accumulation Assay— 24 hours post transfection with pcDNA3.1-CXCR4 and pcDNA1-HA-mG {alpha} qi5 (see Verzijl et al, 2008 supra), 250.000 cells were seeded into 24-wells plates and labelled overnight using inositol-free minimal essential medium supplemented with 1 μCi myo-[2-^3H]-inositol. The next day, the cells were washed once to remove not incorporated myo-[2-^3H]-inositol. […] In agonist experiments, the cells were directly stimulated with test compounds and LiCl (10 mM) in assay buffer for 2 h at 37° C. The stimulation was stopped by aspirating the stimulation medium and adding ice-cold 10 mM formic acid. The accumulated inositol phosphates were isolated by anion exchange chromatography and counted by liquid scintillation. CRE Reporter Gene Assay— HEK239T cells were transfected with pCRE/β-galactosidase (Chen W, Shields T S, Stork P J S, Cone R D (1995) Anal Biochem 226:349-354) and plasmids (pcDEF3 or pcDNA3.1) encoding the indicated receptors. 40,000 transfected cells per well were seeded into 96 well plates and grown in DMEM supplemented with 10% fetal calf serum. The medium was replaced 32 h after transfection by serum-free DMEM supplemented with 0.5% bovine serum albumin and ligands as indicated. […] The β-galactosidase activity was determined by the measurement of absorption at 420 nm with a PowerwaveX340 plate reader (Bio-Tek Instruments Inc., Winooski, Vt.) after incubation with the assay buffer when the OD420 value for forskolin (3 μM) controls reached 0.4-0.6. Chemotaxis Assay— The chemotactic responsiveness of Jurkat 3D cells was assessed using ChemoTx™ plates (Receptor Technologies Ltd., Oxon, UK) in which a upper cell-containing compartment is separated from a lower chemoattractant-containing compartment by a polyvinylpyrollidone-free polycarbonate filter with 5-μm pores. Cells were harvested, washed and resuspended in RPMI containing 0.5% bovine serum albumin and then loaded to 150,000 cells per well in a volume of 25 μl into the upper compartment of the chemotaxis chamber.

CXCR4 [2] = biological target: T1, CXCR4; assay: [125I]-238D2 competition binding on membranes from HEK293T cells transiently expressing CXCR4
Protocol: as §2

CXCR4 [3] = biological target: T1, CXCR4; assay: [125I]-238D4 competition binding on membranes from HEK293T cells transiently expressing CXCR4
Protocol: as §2

[4] = system: Jurkat cells endogenously expressing CXCR4; assay: Chemotaxis assay (ChemoTx plates) with Jurkat cells towards CXCL12; assay type: cell-based; settings: for inhibition of migration of Jurkat cells towards CXCL12: 300 pM CXCL12; for Imax (%), Chemotaxis, bivalent Nanobodies: Jurkat/0.3 nM CXCL12, mean ± S.E.M.; for pKi, antagonism of the chemoattractant effects of CXCL12: n=3
Protocol: as §1, with “indicated. Following 16 h of ligand incubation, the medium was removed, the cells were lysed in 100 μl of assay buffer (100 mM sodium phosphate buffer at pH 8.0, 4 mM 2-nitrophenol-β-D-pyranoside, 0.5% Triton X-100, 2 mM MgSO4, 0.1 mM MnCl2, and 40 mM β-mercaptoethanol) and incubated at room temperature.” for “indicated.”

[5] = membranes from HEK293T cells transiently expressing CXCR4, mean ± S.E.M.

Chain of CXCR4 (N119A) (P61073 whole entry N119A): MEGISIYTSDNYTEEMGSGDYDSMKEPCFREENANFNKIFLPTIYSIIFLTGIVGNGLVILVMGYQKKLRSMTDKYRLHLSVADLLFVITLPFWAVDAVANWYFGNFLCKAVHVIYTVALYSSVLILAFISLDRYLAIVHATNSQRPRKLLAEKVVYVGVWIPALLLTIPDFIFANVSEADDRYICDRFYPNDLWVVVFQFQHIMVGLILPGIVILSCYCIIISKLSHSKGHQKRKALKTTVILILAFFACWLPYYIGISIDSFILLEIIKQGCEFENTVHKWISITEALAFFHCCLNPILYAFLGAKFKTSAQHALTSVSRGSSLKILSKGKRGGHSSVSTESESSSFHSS
T1 sequence (P61073 whole entry): as the sequence (P61073 whole entry N119A) above, with A119N counted along it

Row | Molecule | stimulation of the mutant receptor (CXCR4 (N119A); inositol phosphate accumulation) | Displacem. (%) of [125I]-CXCL12 (maximal displacement) (CXCR4 [1]; [5]) | displacement of [125I]-238D2 from CXCR4 (CXCR4 [2]; [125I]-238D2 3 nM) | Displacem. (%) of [125I]-238D2 (maximal displacement) (CXCR4 [2]; [5]) | displacement of [125I]-238D4 from CXCR4 (CXCR4 [3]; [125I]-238D4 3 nM) | Displacem. (%) of [125I]-238D4 (maximal displacement) (CXCR4 [3]; [5]) | functional profile at CXCR4 (N119A) (CXCR4 (N119A); ligand-induced alteration of basal inositol phosphate accumulation, listed as plerixafor) | effect on the nanobody-induced reduction of basal inositol phosphate accumulation (CXCR4 (N119A); with 238D4, L3 and L8) | Rel. potency, relative to monovalent 238D2 (CXCR4 [1]) | Rel. potency, relative to monovalent 238D4 (CXCR4 [1]) | increase in affinity to CXCR4 over monovalent 238D2 (CXCR4 [1]; heterobivalent construct) | increase in affinity to CXCR4 over monovalent 238D4 (CXCR4 [1]; heterobivalent construct) | Displacem. (%) of [125I]-CXCL12 (maximal displacement), bivalent Nanobodies (CXCR4 [1]; [5]) | pKi, [125I]-CXCL12, bivalent Nanobodies (CXCR4 [1]; [5]) | inhibition of migration of Jurkat cells towards CXCL12 [4] | Imax (%), Chemotaxis, bivalent Nanobodies [4] | pKi, antagonism of the chemoattractant effects of CXCL12 [4]
1 | CXCL12: stromal-derived-factor-1, the natural (endogenous) ligand for CXCR4 [reference compound] | 0.4 fold over basal | – | – | – | – | – | – | – | – | – | – | – | – | – | – | – | –
2 | c1cc(CN2CCCNCCNCCCNCC2)ccc1CN1CCCNCCNCCCNCC1 [AMD3100, reference compound] | – | 94 ± 2% | displaces | 102 ± 1% | displaces | 99 ± 4% | neutral antagonist; also recorded: Neither significant agonistic nor inverse antagonistic activity | antagonized | – | – | – | – | – | – | – | – | –
3 | B1 | – | – | – | – | – | – | – | – | 27 | 17 | 27 fold | 17 fold | 103 ± 4% | 9.44 ± 0.07 | fully antagonized | 100 ± 4% | 10.19±0.27
4 | B2 | – | – | – | – | – | – | – | – | 28 | 17 | – | – | 92 ± 6% | 9.45 ± 0.09 | fully antagonized | 107 ± 5% | 9.86±0.04
